Measurements as given in US20170131282A1.

How the values were obtained:
Assay in all cases: cell-based or functional assay
[1] = molecular target: mouse chemokine CCL7 secreted in conditioned media of mouse adipocytes / adipose tissue (mouse) (UniProt Q03366)
[2] = molecular target: human chemokine receptor CCR3 on human prostate tumor cells (PC-3, Du-145) (human) (UniProt P51677)
[3] = molecular target: mouse chemokine receptor CCR3 (NM_009914) on mouse prostate tumor cells (TRAMP-C1P3, RM1-BM) (mouse) (UniProt P51678)
Chain of UniProt P51678 (P51678 whole entry): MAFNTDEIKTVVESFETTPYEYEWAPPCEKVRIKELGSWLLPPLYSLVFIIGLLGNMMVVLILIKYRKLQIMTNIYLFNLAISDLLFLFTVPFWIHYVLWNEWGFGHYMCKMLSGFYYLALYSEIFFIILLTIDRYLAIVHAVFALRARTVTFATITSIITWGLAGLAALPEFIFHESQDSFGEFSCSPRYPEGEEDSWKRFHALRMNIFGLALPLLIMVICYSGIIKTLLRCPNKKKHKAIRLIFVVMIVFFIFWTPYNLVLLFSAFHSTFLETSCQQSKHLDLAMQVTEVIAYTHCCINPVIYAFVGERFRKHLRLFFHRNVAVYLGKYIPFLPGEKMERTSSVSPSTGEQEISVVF

Chain of UniProt Q03366 (Q03366 24-97): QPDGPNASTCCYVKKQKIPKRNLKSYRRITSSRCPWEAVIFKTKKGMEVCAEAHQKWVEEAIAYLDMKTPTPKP
Chain of UniProt P51677 (P51677 whole entry): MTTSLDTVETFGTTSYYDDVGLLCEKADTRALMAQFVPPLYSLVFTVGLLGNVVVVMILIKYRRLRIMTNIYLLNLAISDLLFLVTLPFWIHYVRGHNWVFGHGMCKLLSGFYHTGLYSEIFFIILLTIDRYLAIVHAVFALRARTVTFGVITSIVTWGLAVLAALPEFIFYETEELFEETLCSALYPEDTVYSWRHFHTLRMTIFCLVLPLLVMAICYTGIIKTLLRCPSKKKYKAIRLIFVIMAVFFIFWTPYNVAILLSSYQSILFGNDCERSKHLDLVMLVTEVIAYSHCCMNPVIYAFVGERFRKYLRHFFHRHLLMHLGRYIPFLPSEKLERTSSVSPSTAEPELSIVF

| inhibition of migration of PC-3 and Du-145 cells against CM-Ad (Boyden chamber) [1] [% inhibition] | inhibition of migration of PC-3 cells against CM of HFD AT-mu-PG (obese mice) [1] [% inhibition] | inhibition of migration of PC-3 cells against CM of ND AT-mu-PG (normal-weight mice) [1] [% inhibition] | migration of PC-3 and Du-145 prostate cells (Boyden chamber), dose from which the effect is significant [2] [ng/mL] | chemotaxis of TRAMP-C1P3 cells (Boyden chamber), dose from which it is seen [3] [ng/mL] | migration of RM1-BM cells (Boyden chamber) [3] [ng/mL] | Substance |
| --- | --- | --- | --- | --- | --- | --- |
| 50 | 60 | 25 |  |  |  | blocking antibody targeted against CCL7 (AF-456-NA, R&D System) |
|  |  |  | > 50 | > 50 | 100 | human chemokine CCL7 (from UniProt P80098 24-99) (ligand) |
